Data as given in patent US20240166756A1 (KAOHSIUNG MEDICAL UNIVERSITY, published 2024).
Each block holds one molecule with its values, some of them ahead of it.

Tests used:
[1] = target: human C-X-C chemokine receptor 2 (CXCR2) (human) (UniProt P25025); assay: flow cytometry, Alexa Fluor-488-conjugated control IgG1 on fixed Panc-1 cells (80 µg/ml per paragraph 49)
[2] = target: human C-X-C chemokine receptor 2 (CXCR2) (human) (UniProt P25025); assay: flow cytometry, Alexa Fluor-488-conjugated control IgG1 on fixed HMC-1 cells (80 µg/ml per paragraph 49)
[3] = target: human C-X-C chemokine receptor 2 (CXCR2) (human) (UniProt P25025); assay: flow cytometry, Alexa Fluor-488-conjugated control IgG1 on fixed MiaPaCa II cells (80 µg/ml per paragraph 49)
[4] = target: T1, CXCR2 antigen peptide (NICR2 peptide) (human, not fully specified); assay: SPR (Biacore), antibody flowed over the NICR2 peptide, Langmuir 1:1 fit
T1 construct: The immunogen was this peptide conjugated with ovalbumin at its C-terminus ('-C-Ovalbumin')
T1 peptide: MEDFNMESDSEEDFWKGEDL
Text: Equilibrium affinity and rate constants derived from a Langmuir 1:1 binding kinetic analysis. The interactions between the humanized anti-CXCR2 mAb and the CXCR2 antigen peptide (NICR2 peptide) were detected by using SPR. The humanized anti-CXCR2 mAb flowed through the CXCR2 antigen peptide (NICR2 peptide) at the indicated concentrations. Data were corrected for nonspecific background binding. All data are representative of three independent experiments. […] Data shown is representative of 3 independent experiments.
The binding affinity of the humanized anti-CXCR2 monoclonal antibody (NICR2-5) was further investigated by surface plasmon resonance (SPR) Biacore technique. […] The binding of the humanized anti-CXCR2 mAb (NICR2-5) to cell surface receptor was analyzed by flow cytometry. Control IgG1 or humanized anti-CXCR2 mAb (NICR2-5) were conjugated with Alexa Fluor-488 fluorescent dye. Cancer cells were fixed with 3.5% formaldehyde for 15 min at room temperature. Fixed cells were incubated with fluorescent dye-conjugated IgG1 (80 μg/ml), or different concentrations of humanized anti-CXCR2 mAb (NICR2-5) (0, 40, 80 μg/ml) at 4° ° C. for 1 h. Cells were washed with phosphate-buffered saline (PBS) three times and subjected to flow cytometric analysis by using Attune NxT Flow Cytometer.

Chain of human C-X-C chemokine receptor 2 (CXCR2) (human) (P25025 whole entry): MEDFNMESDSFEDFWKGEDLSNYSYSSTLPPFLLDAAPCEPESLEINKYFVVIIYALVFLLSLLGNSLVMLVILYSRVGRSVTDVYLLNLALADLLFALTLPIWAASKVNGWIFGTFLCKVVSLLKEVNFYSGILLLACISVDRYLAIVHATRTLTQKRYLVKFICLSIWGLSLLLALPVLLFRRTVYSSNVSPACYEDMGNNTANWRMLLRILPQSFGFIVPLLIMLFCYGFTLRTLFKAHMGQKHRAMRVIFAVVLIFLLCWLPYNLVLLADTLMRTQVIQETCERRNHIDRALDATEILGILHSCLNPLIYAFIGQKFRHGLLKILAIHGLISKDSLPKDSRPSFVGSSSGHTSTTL

Gated (%) [1]: 8.2%
Gated (%) [2]: 6.6%
Gated (%) [3]: 9.3%
Molecule: hIgG (antibody)

Kd [4]: 0.3 nM
B1: humanized anti-CXCR2 monoclonal antibody (NICR2-5) (antibody, human IgG1, kappa, V domains shown)
VH: QITLKESGPTLVKPTQTLTLTCTFSGFSLRTSGMGVGWIRQPPGKALEWLAHIWWDDDKRYKPDLKSRLTITKDTSKNQVVLTMTNMDPVDTATYYCARLGLRLRTMDYWGQGTLVTVSS
VL: DIVMTQTPLSLSVTPGQPASISCRSSLSLVHSNGDTYLHWYLQKPGQSPQLLIYKVSNRFSGVPDRFSGSGSGTDFTLKISRVEAEDVGVYYCSQSTHVPTFGQGTKLEIKR
notes: CDRs cloned into human IgG1 vector; Conjugated with Alexa Fluor-488 for flow cytometry; also called anti-CXCR2 mAb; humanized anti-CXCR2 mAb (NICR2-5)
